From patent US20250388667A1 (BIO THERA SOLUTIONS, published 2025)

Key:
[1] = target: T1, hNectin-1 (ACRO, PV1-H5223) (human, UniProt Q15223 31-334); assay: ELISA, antigen coated, HRP-labeled anti-human-Kappa secondary antibody
T1 construct: bought
T1 sequence (looked up): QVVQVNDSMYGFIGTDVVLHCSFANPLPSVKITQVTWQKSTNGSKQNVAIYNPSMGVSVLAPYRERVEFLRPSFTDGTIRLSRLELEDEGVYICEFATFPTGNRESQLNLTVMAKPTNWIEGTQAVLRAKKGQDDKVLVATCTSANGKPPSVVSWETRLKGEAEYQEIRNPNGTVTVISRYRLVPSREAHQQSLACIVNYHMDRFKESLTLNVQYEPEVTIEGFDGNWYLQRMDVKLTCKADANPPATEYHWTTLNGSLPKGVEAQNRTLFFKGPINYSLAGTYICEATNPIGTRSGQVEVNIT
Experimental: (§1) The binding activity of intact antibodies was detected by ELISA. The procedures are briefly described as follows: the hNectin-4-His antigen protein of Example 1 was immobilized at a concentration of 1 μg/mL on a plate; the plate was blocked with skimmed milk powder overnight, and then, serially diluted antibodies of interest were added for co-incubation (antibodies in Table 9 were serially 2-fold diluted from 2 μg/mL; antibodies in Tables 10 and 11 were serially 3-fold diluted from 10 μg/mL) at room temperature for 2 h; then an HRP-labeled anti-human-kappa (Sigma, A7164) secondary antibody was added for co-incubation for 1 h, followed by the addition of TMB (Huzhou InnoReagents, TMB-S-001) for chromogenic reaction, and the reaction was stopped with 0.1 M H₂SO₄; after the absorbance at OD450 was read on a microplate reader, the binding EC₅₀ value for each antibody was calculated by four-parameter fitting, and the binding activities of the antibodies were compared.
(§2) In this assay, the binding of different antibodies to human Nectin-4 homologous proteins hNectin-1 (ACRO, PV1-H5223), hNectin-2 (ACRO, PV2-H52E2), hNectin-3 (ACRO, PV3-H52E4), and hNectin-4-His was detected by ELISA to determine the specificity of the antibodies. For the methodology and procedures, see Example 4. Antigens of interest ([…]) were immobilized; after blocking, serially diluted antibodies (2-fold serially diluted from […]) were added, and HRP-labeled anti-human-Kappa secondary antibody was added for chromogenic reaction.

[2] = target: T2, hNectin-2 (ACRO, PV2-H52E2) (human, UniProt Q92692 32-360); assay: as above
T2 construct: bought
T2 sequence (looked up): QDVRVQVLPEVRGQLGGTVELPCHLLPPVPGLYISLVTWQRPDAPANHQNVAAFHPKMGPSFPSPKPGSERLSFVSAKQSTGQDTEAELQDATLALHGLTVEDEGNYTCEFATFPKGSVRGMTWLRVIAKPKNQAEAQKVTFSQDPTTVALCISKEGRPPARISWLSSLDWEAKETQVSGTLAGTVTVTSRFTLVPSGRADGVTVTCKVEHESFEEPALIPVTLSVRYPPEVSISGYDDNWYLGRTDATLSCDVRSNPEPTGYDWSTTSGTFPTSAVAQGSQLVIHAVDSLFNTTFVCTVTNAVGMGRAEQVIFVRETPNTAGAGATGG
Experimental: as §1, §2

Nectin-4 on T-47D cells = target: T3, Nectin-4 on T-47D cells (human, UniProt Q96NY8 32-510); assay: FACS on T-47D cells, 10 µg/mL on ice, 0 h point of the endocytosis assay
T3 construct: whole, on cells; endogenous expression; also called T-47D cells positive for Nectin-4 expression
T3 sequence (looked up): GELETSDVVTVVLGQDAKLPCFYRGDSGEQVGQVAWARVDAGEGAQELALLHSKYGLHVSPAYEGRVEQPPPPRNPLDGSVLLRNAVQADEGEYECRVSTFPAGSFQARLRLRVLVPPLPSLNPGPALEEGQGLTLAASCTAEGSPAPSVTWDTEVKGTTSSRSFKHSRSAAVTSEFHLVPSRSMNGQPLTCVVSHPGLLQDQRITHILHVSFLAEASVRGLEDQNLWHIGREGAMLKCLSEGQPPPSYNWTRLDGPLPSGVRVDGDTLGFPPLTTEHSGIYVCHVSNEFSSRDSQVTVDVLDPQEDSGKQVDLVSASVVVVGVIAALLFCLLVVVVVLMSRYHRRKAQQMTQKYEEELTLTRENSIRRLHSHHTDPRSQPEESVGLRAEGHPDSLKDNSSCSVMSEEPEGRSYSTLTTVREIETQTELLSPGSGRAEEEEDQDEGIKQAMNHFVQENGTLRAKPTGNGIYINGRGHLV
Experimental: In this assay, the relative amount of antibodies remaining on the cell surface after co-incubation at 37° C. for a certain period of time was detected by FACS to reflect the endocytosis efficiency. The procedures are briefly described as follows: T-47D cells (human ductal breast cancer cells, derived from the Cell Bank of Chinese Academy of Sciences, Cat. No. TCHu 87); the antibodies were adjusted to 10 μg/mL and co-incubated with the cells on ice for 1 h; the cells were washed 3 times with pre-cooled PBS, and then placed at 37° C. and incubated for 0 h, 2 h and 4 h; 0.2% N₃Na was added to stop the endocytosis reaction; the cells were washed with PBS thrice, followed by the addition of the PE-labeled anti-human Fc secondary antibody (Invitrogen 12-4998-82); the cells were incubated at 4° C. for 30 min; the red fluorescence signal was detected on a flow cytometer.

B1: antibody 1G8 (antibody, human IgG1, kappa, V domains shown)
VH: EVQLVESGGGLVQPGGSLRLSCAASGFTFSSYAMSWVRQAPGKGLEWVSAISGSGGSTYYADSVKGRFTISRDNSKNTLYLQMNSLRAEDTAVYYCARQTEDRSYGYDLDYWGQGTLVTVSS
VL: DIQMTQSPSSLSASVGDRVTITCRASQGISSYLAWYQQKPGKAPKLLIYAASSLQSGVPSRFSGSGSGTDFTLTISSLQPEDFATYYCQQHYTTPPTFGQGTKVEIKR
notes: intact antibody
With B1 the binding result [1] was “no binding (tested: 2000 ng/mL)”, the binding result [2] was “no binding (tested: 2000 ng/mL)” and the “MFI (0 h)” value (Nectin-4 on T-47D cells) was 105000 MFI.
